Read-outs that look alike come from different tables or passages of the source.

Here are results for two proteins from article doi:10.1101/2023.03.29.533101 (bioRxiv, 2023).

Series [1] concerns the molecule itself. In words: crystal structure.
Series [2] deals with the molecule itself. As to the kind of experiment: crystal structure. This is another data set of the same source.

B1: OpgD from E. coli (EcOpgD) D388N mutant (enzyme, Escherichia coli, UniProt P40120 33-551, looked up)
chain: ADSDIADGQTQRFDFSILQSMAHDLAQTAWRGAPRPLPDTLATMTPQAYNSIQYDAEKSLWHNVENRQLDAQFFHMGMGFRRRVRMFSVDPATHLAREIHFRPELFKYNDAGVDTKQLEGQSDLGFAGFRVFKAPELARRDVVSFLGASYFRAVDDTYQYGLSARGLAIDTYTDSKEEFPDFTAFWFDTVKPGATTFTVYALLDSASITGAYKFTIHCEKSQVIMDVENHLYARKDIKQLGIAPMTSMFSCGTNERRMCDTIHPQIHDSDRLSMWRGNGEWICRPLNNPQKLQFNAYTDNNPKGFGLLQLDRDFSHYQDIMGWYNKRPSLWVEPRNKWGKGTIGLMEIPTTGETLNNIVCFWQPEKAVKAGDEFAFQYRLYWSAQPPVHCPLARVMATRTGMGGFSEGWAPGEHYPEKWARRFAVDFVGGDLKAAAPKGIEPVITLSSGEAKQIEILYIEPIDGYRIQFDWYPTSDSTDPVDMRMYLRCQGDAISETWLYQYFPPAPDKRQYVDDRVMS
As for B1, the binding result in series [1] is “binds”.

B2: OpgG from E. coli (EcOpgG) D361N mutant (enzyme, Escherichia coli, UniProt P33136 23-511, looked up)
chain: FSIDDVAKQAQSLAGKGYETPKSNLPSVFRDMKYADYQQIQFNHDKAYWNNLKTPFKLEFYHQGMYFDTPVKINEVTATAVKRIKYSPDYFTFGDVQHDKDTVKDLGFAGFKVLYPINSKDKNDEIVSMLGASYFRVIGAGQVYGLSARGLAIDTALPSGEEFPRFKEFWIERPKPTDKRLTIYALLDSPRATGAYKFVVMPGRDTVVDVQSKIYLRDKVGKLGVAPLTSMFLFGPNQPSPANNYRPELHDSNGLSIHAGNGEWIWRPLNNPKHLAVSSFSMENPQGFGLLQRGRDFSRFEDLDDRYDLRPSAWVTPKGEWGKGSVELVEIPTNDETNNNIVAYWTPDQLPEPGKEMNFKYTITFSRDEDKLHAPDNAWVQQTRRSTGDVKQSNLIRQPDGTIAFVVDFTGAEMKKLPEDTPVTAQTSIGDNGEIVESTVRYNPVTKGWRLVMRVKVKDAKKTTEMRAALVNADQTLSETWSYQLPANE
In the case of B2, the binding result in series [2] was “binds”.
